T1: mFc tagged human LAG3 ECD recombinant protein (human, UniProt P18627 23-450)
T1 construct: extracellular domain; purchased from Biointron; not shown: mouse IgG Fc (mFc) tag
T1 sequence (looked up): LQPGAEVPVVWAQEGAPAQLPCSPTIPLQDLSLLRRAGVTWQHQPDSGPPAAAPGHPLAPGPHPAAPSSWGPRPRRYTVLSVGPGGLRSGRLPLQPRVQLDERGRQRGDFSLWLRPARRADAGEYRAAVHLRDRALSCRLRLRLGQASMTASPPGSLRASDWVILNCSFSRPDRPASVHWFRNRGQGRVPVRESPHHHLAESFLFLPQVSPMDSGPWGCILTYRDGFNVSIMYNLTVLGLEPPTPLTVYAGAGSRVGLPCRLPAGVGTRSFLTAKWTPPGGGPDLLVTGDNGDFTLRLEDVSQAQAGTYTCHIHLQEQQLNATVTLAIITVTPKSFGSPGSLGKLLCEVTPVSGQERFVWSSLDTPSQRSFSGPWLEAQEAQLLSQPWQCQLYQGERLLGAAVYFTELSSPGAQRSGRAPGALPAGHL

T2: human LAG3, full length, stably expressed on cells (human, UniProt P18627 23-525)
T2 construct: whole, on cells; also called CHOK1-human LAG3
T2 sequence (looked up): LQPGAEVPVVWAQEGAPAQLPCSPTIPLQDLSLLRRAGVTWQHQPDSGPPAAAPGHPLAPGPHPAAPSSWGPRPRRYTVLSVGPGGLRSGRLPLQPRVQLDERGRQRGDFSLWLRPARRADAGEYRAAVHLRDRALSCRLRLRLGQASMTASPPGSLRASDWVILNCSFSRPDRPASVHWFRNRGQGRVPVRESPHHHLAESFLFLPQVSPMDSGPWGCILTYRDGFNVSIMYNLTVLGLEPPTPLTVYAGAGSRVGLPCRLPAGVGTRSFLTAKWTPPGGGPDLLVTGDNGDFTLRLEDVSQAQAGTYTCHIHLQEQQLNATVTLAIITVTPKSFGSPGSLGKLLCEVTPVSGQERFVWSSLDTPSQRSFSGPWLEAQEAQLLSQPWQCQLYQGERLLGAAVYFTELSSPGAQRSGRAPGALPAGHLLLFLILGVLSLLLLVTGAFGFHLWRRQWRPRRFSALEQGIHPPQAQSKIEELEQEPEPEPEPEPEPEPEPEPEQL

T3: human LAG3 (form used in Octet, Biacore and HDX-MS not given) (human, UniProt P18627 23-450, limits assumed)
T3 sequence (looked up): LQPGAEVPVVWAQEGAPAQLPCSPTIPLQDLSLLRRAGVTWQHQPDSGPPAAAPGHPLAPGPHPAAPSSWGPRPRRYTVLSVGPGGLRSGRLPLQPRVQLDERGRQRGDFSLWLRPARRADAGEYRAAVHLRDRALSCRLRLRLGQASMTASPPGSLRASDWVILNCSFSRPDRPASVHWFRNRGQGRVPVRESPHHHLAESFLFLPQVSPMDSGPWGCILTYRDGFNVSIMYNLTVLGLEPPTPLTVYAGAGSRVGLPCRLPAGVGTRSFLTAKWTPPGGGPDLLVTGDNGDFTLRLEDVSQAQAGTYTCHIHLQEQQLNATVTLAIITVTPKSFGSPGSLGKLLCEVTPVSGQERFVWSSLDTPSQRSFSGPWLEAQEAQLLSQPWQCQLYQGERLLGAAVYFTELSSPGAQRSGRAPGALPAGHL

B1: 038c (antibody, human IgG4, V domains shown)
VH: DVQVQESGPGLVKPSQSLSLTCSVTGYSITSGYYWNWIRQFPGNKLEWMGYISYDGSNEYNLSLKNRLSITRDTSKNQFFLKLNSVTTEDTATYYCAREEDGYYGGMDYWGQGTSVTVSS
VL: DIVMTQSHKFMSASVGVRVSITCRASQDVDTAVAWYQQKPGQSPKLLIYWASTRHTGVPDRFTGSGSGTDFTLTISNVQSEDLADYFCQQYSSYPYTFGGGTKLEIK
notes: human IgG4 S228P / kappa chimeric antibody; also called chimeric antibody 038; not shown: human kappa light chain constant region (pcDNA3.4-hIgGk vector)
B2: hu029.53 (antibody, V domains shown)
VH: QVQLVESGGGLVKPGGSLRLSCAASGFTFSSYAMSWIRQAPGKGLEWVAYVTSGGDYIYYADTVKGRFTISRDDAKNSLYLQMNSLRAEDTAMYYCTRVAYDYEWYFDVWGQGALVTVSS
VL: DIQMTQSPSSVSASVGDRVTITCKASQDVTTAVAWYQQKPGKAPKLLIYSASYRYTGVPSRFSGSGSGTDFTLTISSLQPEDFATYYCQQHDSSPWTFGQGTKLEIK
notes: humanized from 029c
B3: hu023.05 (antibody, human IgG4, V domains shown)
VH: QVQLVQSGAEVKKPGASVKVSCKASGYTFTESPMNWVRQAPGQGFEWMGIIYTDTGEPTYAEEFKGRVTMTRDTSTSTVYMELSSLRSEDTAVYFCASDYGSILYWYFDVWGQGTLVTVSS
VL: DIQMTQSPSSLSASVGDRVTITCKASQDVSTAVAWYQQKPGKSPKLLIYSASYRYTGVPSRFSGSGSGTDFTFTISSLQPEDFATYYCQQHYNAPPTFGQGTKLEIK
notes: humanized from 023c
B4: hu023.08 (antibody, human IgG4, V domains shown)
VH: QVQLVQSGPEVKKPGASVKVSCKASGYTFTESPMNWVRQAPGQGFEWMGIIYTDTGEPTYAEEFKGRVTMTLDTSTSTVYMELSSLRSEDTAVYFCASDYGSILYWYFDVWGQGTLVTVSS
VL: DIQMTQSPSSLSASVGDRVTITCKASQDVSTAVAWYQQKPGKSPKLLIYSASYRYTGVPSRFSGSGSGTDFTFTISSLQPEDFATYYCQQHYNAPPTFGQGTKLEIK
notes: humanized from 023c
B5: hu029.40 (antibody, V domains shown)
VH: QVQLVESGGGLVKPGGSLRLSCAASGFTFSSYAMSWVRQAPGKRLEWVAYVTSGGDYIYYADTVKGRFTISRDDAKNSLYLQMNSLRAEDTAMYYCTRVAYDYEWYFDVWGQGALVTVSS
VL: DIQMTQSPSSVSTSVGDRVTITCKASQDVTTAVAWYQQKPGKAPKLLIYSASYRYTGVPSRFSGSGSGTDFTFTISSVQPEDFATYYCQQHDSSPWTFGQGTKLEIK
notes: humanized from 029c
B6: hu023.12 (antibody, human IgG4, V domains shown)
VH: QVQLVQSGPELKKPGASVKVSCKASGYTFTESPMNWVRQAPGQGFEWMGIIYTDTGEPTYAEEFKGRFVFSLDTSVSTAYLQISSLKAEDTAVYFCVSDYGSILYWYFDVWGQGTLVTVSS
VL: DIQMTQSPSSLSTSVGDRVTITCKASQDVSTAVAWYQQKPGKSPKLLIYSASYRYTGVPSRFSGSGSGTDFTFTISSVQPEDFATYYCQQHYNAPPTFGQGTKLEIK
notes: humanized from 023c
B7: hu023.14 (antibody, human IgG4, V domains shown)
VH: QIQLVQSGPELKKPGASVKISCKASGYTFTESPMNWVRQAPGQGFEWMGIIYTDTGEPTYAEEFKGRFVFSLDTSVSTAYLQISSLKAEDTAVYFCVSDYGSILYWYFDVWGQGTLVTVSS
VL: DIQMTQSPSSLSASVGDRVTITCKASQDVSTAVAWYQQKPGKSPKLLIYSASYRYTGVPSRFSGSGSGTDFTFTISSLQPEDFATYYCQQHYNAPPTFGQGTKLEIK
notes: humanized from 023c
B8: hu023.06 (antibody, human IgG4, V domains shown)
VH: QVQLVQSGAEVKKPGASVKVSCKASGYTFTESPMNWVRQAPGQGFEWMGIIYTDTGEPTYAEEFKGRVTMTRDTSTSTVYMELSSLRSEDTAVYFCASDYGSILYWYFDVWGQGTLVTVSS
VL: DIQMTQSPSSLSTSVGDRVTITCKASQDVSTAVAWYQQKPGKSPKLLIYSASYRYTGVPSRFSGSGSGTDFTFTISSVQPEDFATYYCQQHYNAPPTFGQGTKLEIK
notes: humanized from 023c
B9: hu023.09 (antibody, human IgG4, V domains shown)
VH: QVQLVQSGPEVKKPGASVKVSCKASGYTFTESPMNWVRQAPGQGFEWMGIIYTDTGEPTYAEEFKGRVTMTLDTSTSTVYMELSSLRSEDTAVYFCASDYGSILYWYFDVWGQGTLVTVSS
VL: DIQMTQSPSSLSTSVGDRVTITCKASQDVSTAVAWYQQKPGKSPKLLIYSASYRYTGVPSRFSGSGSGTDFTFTISSVQPEDFATYYCQQHYNAPPTFGQGTKLEIK
notes: humanized from 023c

Experiments:
[1] = molecular target: T1, mFc tagged human LAG3 ECD recombinant …; experiment: competitive FACS: mFc-LAG3 ECD binding to Raji cells (MHC II)
Experimental: (§1) Activity of the purified chimeric antibodies to block LAG3 and MHC II interaction was determined by competitive FACS assay. […] After washing, dye labeled anti-mouse Fc 2nd antibody (Sigma) was added and incubated at 37° C. for 1 hour. Fluorescence intensity was detected.

[2] = molecular target: T2, human LAG3, full length, stably …; experiment: FACS on 293F cells stably expressing human LAG3
Experimental: Briefly the antibodies were incubated with 2×10⁵ target cells at 4° C. for 1 hour. After washing, fluorescence labeled anti-mouse IgG 2nd antibody (Life Technologies) was added and incubated at 4° C. for 1 hour. Geometric median fluorescence intensity (MFI) was detected and EC₅₀ was calculated using GraphPad Prism9.0.
MFI was detected and EC₅₀ was calculated using GraphPad Prism9.0.

[3] = molecular target: T1, mFc tagged human LAG3 ECD recombinant …; experiment: competitive FACS: mFc tagged human LAG3 ECD binding to MHC II on Raji cells
Experimental: as §1

[4] = molecular target: T3, human LAG3 (form used in Octet, Biacore …); experiment: BLI (Octet), 1:1 fit
Experimental: (§2) The association and dissociation curves were fit with 1:1 binding model, and the Ka/Kd/KD values for each antibody were calculated.
as §2

[5] = molecular target: T3, human LAG3 (form used in Octet, Biacore …); experiment: BLI (Octet)

Binder	Kd [5]	koff [5]	kon [5]	other results
B1				IC50 [1]: 5.2 nM; TOP blocking (%) [1]: 98.4%; EC50 [2]: 2.3 nM
B2				%Blocking at 2 nM [3]: 21.4%; %Blocking at 4 nM [3]: 31.9%; %Blocking at 8 nM [3]: 98%; Kd [4]: 4.94 nM; koff [4]: 0.0217 s⁻¹; kon [4]: 4.38e+06 M⁻¹ s⁻¹
B3	0.616 nM	0.000198 s⁻¹	321000 M⁻¹ s⁻¹	
B4	0.689 nM	0.000219 s⁻¹	318000 M⁻¹ s⁻¹	
B5				%Blocking at 2 nM [3]: 19.6%; %Blocking at 4 nM [3]: 43.4%; %Blocking at 8 nM [3]: 99.1%; Kd [4]: 4.79 nM; koff [4]: 0.0224 s⁻¹; kon [4]: 4.68e+06 M⁻¹ s⁻¹
B6	0.189 nM	5.58e-05 s⁻¹	296000 M⁻¹ s⁻¹	
B7	0.24 nM	7.72e-05 s⁻¹	322000 M⁻¹ s⁻¹	
B8	0.657 nM	0.000161 s⁻¹	246000 M⁻¹ s⁻¹	
B9	0.704 nM	0.000204 s⁻¹	290000 M⁻¹ s⁻¹	

Reference: patent US20250313625A1 (ELPISCIENCE SUZHOU BIOPHARMA, published 2025)
